Assay results reported in doi:10.1101/2021.02.08.430375v1.

Substrate: NC(=O)CCCC[C@@H](S)CCS
Test: purified protein
Details: 100 mM Na phosphate, 100 mM KCl, 8 mM TCEP pH 7.6, room temperature

B1: Lpd (dihydrolipoamide dehydrogenase; lipoamide dehydrogenase) (Escherichia coli K-12) (protein)
chain: MSTEIKTQVVVLGAGPAGYSAAFRCADLGLETVIVERYNTLGGVCLNVGCIPSKALLHVAKVIEEAKALAEHGIVFGEPKTDIDKIRTWKEKVINQLTGGLAGMAKGRKVKVVNGLGKFTGANTLEVEGENGKTVINFDNAIIAAGSRPIQLPFIPHEDPRIWDSTDALELKEVPERLLVMGGGIIGLEMGTVYHALGSQIDVVEMFDQVIPAADKDIVKVFTKRISKKFNLMLETKVTAVEAKEDGIYVTMEGKKAPAEPQRYDAVLVAIGRVPNGKNLDAGKAGVEVDDRGFIRVDKQLRTNVPHIFAIGDIVGQPMLAHKGVHEGHVAAEVIAGKKHYFDPKVIPSIAYTEPEVAWVGLTEKEAKEKGISYETATFPWAASGRAIASDCADGMTKLIFDKESHRVIGGAIVGTNGGELLGEIGLAIEMGCDAEDIALTIHAHPTLHESVGLAAEVFEGSITDLPNPKAKKK
- Km: 180 ± 20 µM
